For 1 compound, blood retention, tissue uptake and tissue to tissue ratio results are on record in PMC4600075, “Rapid kit-based ^68Ga-labelling and PET imaging with THP-Tyr^3-octreotate: a preliminary comparison with DOTA-Tyr^3-octreotate” (EJNMMI Research, 2015).

Series [1] relates to SSTR2-positive AR42J tumours. The experiment in a line: Ex vivo biodistribution. To be noted: 1 h PI, i.v., ex vivo gamma counting; n = 3, ±SEM. As to the method: (§1) All animal experiments were performed with approval from the Peter MacCallum animal ethics committee. Six- to eight-week-old Balb/c nude mice (Animal Resources Centre, Western Australia) were implanted subcutaneously on the right flank with three million AR42J cells (sourced from ATCC). Once the tumours reached a volume >150 mm^3, the animals (n = 3) were injected intravenously with 23–28 MBq [^68Ga(THP-TATE)] (containing 1 μg of THP-TATE). For blocking studies, animals (n = 3) were coinjected with Tyr^3-octreotate peptide (400 μg). For [^68Ga(DOTATATE)], the animals (n = 3) were injected with 8 MBq of the tracer (containing 1 μg of DOTATATE). At 1 h, the animals were anaesthetised and imaged on a Philips MOSAIC small animal PET scanner. The images were reconstructed using a 3D RAMLA algorithm and tracer uptake determined as described previously. On completion of the scan, animals were euthanised and tissues harvested, weighed and radioactivity counted using a gamma counter (Biomedex). Quantitation of PET images was performed using in-house software (MARVn 3.31). Regions of interest were drawn around tissues of interest and uptake ratio calculated as the maximum pixel intensity in the tumour divided by the average uptake in a mediastinal background region, liver or kidneys, as appropriate.

The next series is described as follows: Ex vivo biodistribution. To be noted: Balb/c nude, mouse, in vivo, iv, 1 ug, total radioactivity, 1 h PI, ex vivo gamma counting, n = 3, ±SEM. As to the method:
as §1

Series [2] is described as follows: PET scanning, tumour to organ/background ratios. Conditions: Balb/c nude, mouse, in vivo, iv, 1 ug, total radioactivity, PET images 1 h PI, ±SEM, n = 3. As to the method:
as §1

The tissue uptake is the share of the injected amount in each gram of the tissue. For `C[C@@H](O)[C@H](NC(=O)[C@@H]1CSSC[C@H](NC(=O)[C@@H](Cc2ccccc2)NC(=O)CN2CCN(CC(=O)O)CCN(CC(=O)O)CCN(CC(=O)O)CC2)C(=O)N[C@@H](Cc2ccc(O)cc2)C(=O)N[C@H](Cc2c[nH]c3ccccc23)C(=O)N[C@@H](CCCCN)C(=O)N[C@@H]([C@@H](C)O)C(=O)N1)C(=O)O` [[^68Ga(DOTATATE)], metal not drawn], in series [1], the blood retention was 0.3 ± 0.1 %ID g^−1. Further, the tissue uptake at 1 h turned out to be 14.4 ± 0.8 %ID/g in the series “Ex vivo biodistribution” (AR42J tumour uptake) and 5.6 ± 0.5 %ID/g in the series “Ex vivo biodistribution” (kidney retention). Also, the tissue to tissue ratio at 1 h turned out to be 5.7 ± 0.2 in series [2] (Tumour to kidney ratio, maximum tumour pixel intensity / average organ uptake) and 27.2 ± 3.9 in series [2] (Tumour to liver ratio).
